Patent publication US20110124572A1, “SYNDECAN-4 IS A REGULATOR OF RAC1-GTP” (priority 2008, published 2011)

Target: p21-binding domain of PAK-1 fused to agarose beads (GST-Pak1-Rac/Cdc42-binding domain), as used in the Rac1 activation kit (UniProt Q13153)
Test: PAK-1 p21-binding domain (PAK-PKB) pull-down from cell lysate, blot with anti-syndecan-4 or anti-GFP

Sequence of p21-binding domain of PAK-1 fused to agarose beads (GST-Pak1-Rac/Cdc42-binding domain), as used in the Rac1 activation kit (Q13153 67-150 limits assumed): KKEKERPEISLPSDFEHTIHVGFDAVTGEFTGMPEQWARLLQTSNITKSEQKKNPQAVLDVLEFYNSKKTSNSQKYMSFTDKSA

**Q.** “wt-syndecan-4-GFP chimera (human syndecan-4, wild type, GFP inserted at position 131) (from UniProt P31431 19-198)” was tested. Which amount of pulled-down syndecan-4 against the Ser179Ala line (% less than Ser179Ala line) did it give?
**A.** The amount of pulled-down syndecan-4 against the Ser179Ala line (% less than Ser179Ala line) was 20.
